In this assay the target is mutant pp60c-Src tyrosine kinase (SRC 531 mutant, truncated c-Src) (human) (UniProt P12931). In words: cell-based or functional assay.

Regarding “peptide Ala-Glu-Glu-Glu-Ile-Tyr-Gly-Glu-Phe-Glu-Ala-Lys-Lys-Lys-Lys”, the K50% (competitive inhibition of enolase phosphorylation) was 5 µM; the Km (kinase reaction, 32P incorporation into peptide, phosphocellulose paper) was determined as 2 µM; the Vmax (kinase reaction, 32P incorporation into peptide, phosphocellulose paper) worked out at 0.9 µM/mg/min.
